Results: article PMC2643122 (Molecular Microbiology, 2008)

Molecular target: the molecule itself
Assay: SEC

B1: recombinant full-length Candida albicans Ssa2 protein (natural protein)
chain: not shown
  binding result: binds
